Among the data in publication PMC12229607 are EC50 values, retold here.

The assay deals with human Fc gamma receptor FcγRIIIa, V158 allotype (human). The assay can be described thus: ELISA.
human Fc gamma receptor FcγRIIIa, V158 allotype (human), sequence (P08637 17-208): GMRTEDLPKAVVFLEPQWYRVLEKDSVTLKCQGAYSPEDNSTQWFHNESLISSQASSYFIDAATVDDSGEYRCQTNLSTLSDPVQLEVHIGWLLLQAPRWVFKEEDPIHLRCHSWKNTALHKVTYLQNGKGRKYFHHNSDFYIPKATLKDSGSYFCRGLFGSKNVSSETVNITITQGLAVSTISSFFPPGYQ

One may read the EC50 as the concentration at which the effect is half-maximal. Read a low EC50 as higher potency in that assay. Substance “G2-hinge-Fc (E. coli-derived human IgG1 hinge-Fc bearing the G2 glycoform) (domain or fragment)” yielded a concentration for a half-maximal effect (EC50) of 28.5 nM. The same measure for commercial trastuzumab (antibody): 5.4 nM.
